Experimental data reported in patent US9610329B2 (Albireo Pharma, Inc., priority 2009, dated 2017).
Where two headings read alike, the source gives them in different places.

Columns and labels:
[1] = cited from earlier work
[2] = Accelerated stability study at 37° C., BIOD 901 compared to Lilly glucagon (Example 3); assay type: physicochemical; details: in solution at pH 4
[3] = cited from earlier work; remark: listed apart in the source

In the case of glucagon, the “onset of action post injection” value [1] is listed as 5 to 20 min, the time to gel [2] is listed as at most 2 days and the gel formation ([3]; acidic aqueous conditions (pH 3-4)) is listed as “forms a gel”. The precipitation ([3]; neutral aqueous solution) was “precipitates within an hour of preparation”, the “solubility in aqueous solutions” value ([3]; pH less than 3 or greater than 9) was “soluble” and the “solubility in aqueous solutions” value ([3]; pH range of 4 to 8) was “low solubility”.
